Results on 6 molecules are retold here after paper PMC7077846 (PLoS Biology, 2020).

Experiment [1] addresses human 20S proteasome core particle (human) (UniProt P60900).
The target in experiment [2] is T1, human proteasome activator 200 (PA200) (human, UniProt Q14997 1-1843).
T1 construct: Carries the cofactors 5,6[PP]2-InsP4 and InsP6 in its two openings; The results say 1,844 residues, the methods 1-1,843; source: Trichoplusia ni (Hi5) insect cells, baculovirus (Bac-to-Bac), purified (Ni-NTA, gel filtration on Superose 6)
In words: cryo-EM structure; 3 μl 20S-CP (approximately 1.4 mg/ml) incubated with 6 μl PA200 (approximately 0.44 mg/ml) in ice for 1 h; single-capped PA200-20S particles selected; 2.72 Å. The conditions noted are these: both partners purified.

T1 sequence (Q14997 whole entry): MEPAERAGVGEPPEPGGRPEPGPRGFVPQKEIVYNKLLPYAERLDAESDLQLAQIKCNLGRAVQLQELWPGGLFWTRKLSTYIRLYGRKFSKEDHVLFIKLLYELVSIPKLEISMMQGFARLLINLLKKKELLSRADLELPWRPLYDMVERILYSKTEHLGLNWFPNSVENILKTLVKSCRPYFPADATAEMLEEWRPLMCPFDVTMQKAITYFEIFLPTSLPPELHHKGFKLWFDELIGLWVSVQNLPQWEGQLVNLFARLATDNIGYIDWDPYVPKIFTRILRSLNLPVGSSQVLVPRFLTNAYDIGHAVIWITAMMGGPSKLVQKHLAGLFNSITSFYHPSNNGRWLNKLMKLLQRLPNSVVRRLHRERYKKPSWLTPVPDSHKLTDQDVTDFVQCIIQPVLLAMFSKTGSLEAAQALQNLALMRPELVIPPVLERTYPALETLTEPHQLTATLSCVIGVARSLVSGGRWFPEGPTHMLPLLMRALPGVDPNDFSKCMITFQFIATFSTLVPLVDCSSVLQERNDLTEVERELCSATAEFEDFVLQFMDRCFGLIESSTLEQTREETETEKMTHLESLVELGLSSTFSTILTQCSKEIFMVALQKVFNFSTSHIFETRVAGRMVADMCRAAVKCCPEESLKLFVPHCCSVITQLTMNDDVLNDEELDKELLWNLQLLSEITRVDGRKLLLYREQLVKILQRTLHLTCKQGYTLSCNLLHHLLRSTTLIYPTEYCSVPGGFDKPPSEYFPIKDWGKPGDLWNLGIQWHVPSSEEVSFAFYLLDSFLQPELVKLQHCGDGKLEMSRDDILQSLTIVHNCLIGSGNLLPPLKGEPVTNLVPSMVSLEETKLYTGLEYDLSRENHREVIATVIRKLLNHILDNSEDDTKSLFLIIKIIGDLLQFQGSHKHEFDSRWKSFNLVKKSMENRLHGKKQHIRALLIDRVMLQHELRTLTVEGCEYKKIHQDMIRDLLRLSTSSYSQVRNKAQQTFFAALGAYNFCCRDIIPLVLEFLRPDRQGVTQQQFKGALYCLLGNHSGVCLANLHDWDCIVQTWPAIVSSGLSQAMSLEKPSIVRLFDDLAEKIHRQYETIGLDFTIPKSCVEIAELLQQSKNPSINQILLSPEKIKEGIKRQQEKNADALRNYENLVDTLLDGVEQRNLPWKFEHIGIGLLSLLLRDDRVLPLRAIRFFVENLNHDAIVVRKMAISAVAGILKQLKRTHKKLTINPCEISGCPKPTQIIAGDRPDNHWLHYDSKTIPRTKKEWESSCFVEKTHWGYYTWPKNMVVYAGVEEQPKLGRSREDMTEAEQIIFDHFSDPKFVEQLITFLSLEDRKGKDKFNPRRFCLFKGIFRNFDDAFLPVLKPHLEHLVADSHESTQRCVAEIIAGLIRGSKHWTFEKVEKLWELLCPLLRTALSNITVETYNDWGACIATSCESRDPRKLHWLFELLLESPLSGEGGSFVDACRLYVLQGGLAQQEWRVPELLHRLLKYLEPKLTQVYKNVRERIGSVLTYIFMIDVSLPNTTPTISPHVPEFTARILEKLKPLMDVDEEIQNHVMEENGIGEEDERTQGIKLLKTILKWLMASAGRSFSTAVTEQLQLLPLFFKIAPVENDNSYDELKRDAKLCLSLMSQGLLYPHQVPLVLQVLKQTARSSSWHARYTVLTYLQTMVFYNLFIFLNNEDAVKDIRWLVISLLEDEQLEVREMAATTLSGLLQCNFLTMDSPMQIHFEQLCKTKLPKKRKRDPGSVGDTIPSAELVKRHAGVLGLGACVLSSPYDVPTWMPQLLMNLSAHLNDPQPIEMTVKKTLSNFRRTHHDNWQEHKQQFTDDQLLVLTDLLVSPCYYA
Sequence of human 20S proteasome core particle (human) (P60900 whole entry, looked up): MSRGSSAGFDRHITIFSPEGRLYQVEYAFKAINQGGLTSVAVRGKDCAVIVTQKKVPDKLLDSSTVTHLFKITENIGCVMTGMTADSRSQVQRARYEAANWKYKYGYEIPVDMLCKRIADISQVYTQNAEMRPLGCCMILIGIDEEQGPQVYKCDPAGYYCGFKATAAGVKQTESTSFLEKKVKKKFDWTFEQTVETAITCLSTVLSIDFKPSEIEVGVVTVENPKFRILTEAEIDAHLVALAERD

For “human proteasome activator 200 (PA200) (from UniProt Q14997 1-1843) (natural protein)”, the Vmax of cleavage of Suc-LLVY-AMC (chymotryptic-like activity) by PA200-20S, 2.5 nM; 20S alone 3.14 μM/min in experiment [1] was 11.4 µM/min.

B1: human 20S proteasome subunit α3 (natural protein)
chain: MSRRYDSRTTIFSPEGRLYQVEYAMEAIGHAGTCLGILANDGVLLAAERRNIHKLLDEVFFSEKIYKLNEDMACSVAGITSDANVLTNELRLIAQRYLLQYQEPIPCEQLVTALCDIKQAYTQFGGKRPFGVSLLYIGWDKHYGFQLYQSDPSGNYGGWKATCIGNNSAAAVSMLKQDYKEGEMTLKSALALAIKVLNKTMDVSKLSAEKVEIATLTRENGKTVIRVLKQKEVEQLIKKHEEEEAKAEREKKEKEQKEKDK
notes: 20S proteasome subunit α3, human; named only as α3; Stood in the experiment as a subunit of the whole 20S core particle; source: bought: Boston Biochem, as part of the human 20S proteasome
Take B1: the binding result in experiment [2] is on record as “binds”.

B2: human 20S proteasome subunit α2 (natural protein)
chain: MAERGYSFSLTTFSPSGKLVQIEYALAAVAGGAPSVGIKAANGVVLATEKKQKSILYDERSVHKVEPITKHIGLVYSGMGPDYRVLVHRARKLAQQYYLVYQEPIPTAQLVQRVASVMQEYTQSGGVRPFGVSLLICGWNEGRPYLFQSDPSGAYFAWKATAMGKNYVNGKTFLEKRYNEDLELEDAIHTAILTLKESFEGQMTEDNIEVGICNEAGFRRLTPTEVKDYLAAIA
notes: 20S proteasome subunit α2, human; named only as α2; Stood in the experiment as a subunit of the whole 20S core particle; source: bought: Boston Biochem, as part of the human 20S proteasome
Consider B2, for which the binding result in experiment [2] is “binds”.

B3: human 20S proteasome subunit α7 (natural protein)
chain: MSSIGTGYDLSASTFSPDGRVFQVEYAMKAVENSSTAIGIRCKDGVVFGVEKLVLSKLYEEGSNKRLFNVDRHVGMAVAGLLADARSLADIAREEASNFRSNFGYNIPLKHLADRVAMYVHAYTLYSAVRPFGCSFMLGSYSVNDGAQLYMIDPSGVSYGYWGCAIGKARQAAKTEIEKLQMKEMTCRDIVKEVAKIIYIVHDEVKDKAFELELSWVGELTNGRHEIVPKDIREEAEKYAKESLKEEDESDDDNM
notes: 20S proteasome subunit α7, human; named only as α7; Stood in the experiment as a subunit of the whole 20S core particle; source: bought: Boston Biochem, as part of the human 20S proteasome
Regarding B3, the binding result in experiment [2] is “binds”.

B4: human 20S proteasome subunit α4 (natural protein)
chain: MSYDRAITVFSPDGHLFQVEYAQEAVKKGSTAVGVRGRDIVVLGVEKKSVAKLQDERTVRKICALDDNVCMAFAGLTADARIVINRARVECQSHRLTVEDPVTVEYITRYIASLKQRYTQSNGRRPFGISALIVGFDFDGTPRLYQTDPSGTYHAWKANAIGRGAKSVREFLEKNYTDEAIETDDLTIKLVIKALLEVVQSGGKNIELAVMRRDQSLKILNPEEIEKYVAEIEKEKEENEKKKQKKAS
notes: 20S proteasome subunit α4, human; named only as α4; Stood in the experiment as a subunit of the whole 20S core particle; source: bought: Boston Biochem, as part of the human 20S proteasome
Regarding B4, the binding result in experiment [2] is given as “binds”.

B5: human 20S proteasome subunit α5 (natural protein)
chain: MFLTRSEYDRGVNTFSPEGRLFQVEYAIEAIKLGSTAIGIQTSEGVCLAVEKRITSPLMEPSSIEKIVEIDAHIGCAMSGLIADAKTLIDKARVETQNHWFTYNETMTVESVTQAVSNLALQFGEEDADPGAMSRPFGVALLFGGVDEKGPQLFHMDPSGTFVQCDARAIGSASEGAQSSLQEVYHKSMTLKEAIKSSLIILKQVMEEKLNATNIELATVQPGQNFHMFTKEELEEVIKDI
notes: 20S proteasome subunit α5, human; named only as α5; Stood in the experiment as a subunit of the whole 20S core particle; source: bought: Boston Biochem, as part of the human 20S proteasome
In the case of B5, the binding result in experiment [2] is “binds”.
